Laboratory results published in paper PMC8063735.

B1: Drosophila melanogaster Hsp110 (Hsc70cb-encoded protein) (natural protein)
chain: MSVIGIDFGNESCYVAAARSGGIETLANDYSLRATPSFVAFDGKKRIIGVAAKNQQVTNMKNTVGGFKRLLGRKFNDPHVQHELTSIPARVEARGDGSIGIKVNYLGEDQHFGPEQLTAMLFTKLKETSAAAMQTQVNDCVIACPVFFTNAERKALLDAAQIAGLNVLRLMNETTATALAYGFYKNDLFEDKPRNVIFVDFGHSSLQASACAFTKGKLKMLASTWDQIGGRDIDLALGDYFAKEFQERYKINAKTNARANLRLLTEIEKLKKQMSANSTKLPLNIECFLDDIDVSSSMQRSQMEELCAPVLQRVEQTFKRLLAESKLQLDDIHSVEIVGGSSRIPSVKQLIEQVFNKPASTTLNQDEAVSRGAALQCAIMSPAVRVREFGVTDIQNYAVKVLWDSEGSAAPGEIEIFPQYHASPFSRLLTINRKGPFNVSIVYGQQVPYPDQTIGVWKVKDVKPTERGEGQDVKLKVRINNNGIVLISSATLVEKKEAEEAAAAAEQAASEEKPGDQTNNTGEPADGQQEGADKKKKASKATELPLECTTHGFSPVDLSNYTQQESKMIGNDQKETERIDAKNALEEFVYDMRNKLQGGPFERYVVEAEREKIVSQLNDLENWLYEDGEDCERDIYTSRLQALHQKTDPIKLRASDYEQGPAAFDELKNSIAIARLAVAEFRKGVPKYDHLTETEFINISETADKAQSWLDANLPKFTQSPRTADSPVQISAVRQEVQTLNSCVSSVINRAKPKPTPAKTATPPKDEANAEQNGGEPAANSGDKMDVDNNGQSAAGNDPSMEVE

How the values were obtained:
citrate synthase [1] = target: T1, citrate synthase (UniProt P00889)
T1 sequence: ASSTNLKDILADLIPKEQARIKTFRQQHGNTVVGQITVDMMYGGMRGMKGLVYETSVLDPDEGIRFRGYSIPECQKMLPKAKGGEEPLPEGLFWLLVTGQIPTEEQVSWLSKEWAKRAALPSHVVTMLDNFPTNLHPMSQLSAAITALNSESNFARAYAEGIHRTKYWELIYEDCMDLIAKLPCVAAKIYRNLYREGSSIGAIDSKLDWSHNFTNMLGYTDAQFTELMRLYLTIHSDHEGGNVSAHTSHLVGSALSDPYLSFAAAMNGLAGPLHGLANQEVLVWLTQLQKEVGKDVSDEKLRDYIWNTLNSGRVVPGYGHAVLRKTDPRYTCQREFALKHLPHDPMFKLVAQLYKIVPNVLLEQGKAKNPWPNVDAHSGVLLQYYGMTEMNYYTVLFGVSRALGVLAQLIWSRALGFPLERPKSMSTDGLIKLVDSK

citrate synthase [2] = target: T1, citrate synthase; remark: listed apart in the source

Molecule	differential centrifugation after the light scatter assay: per cent of CS in the pellet (citrate synthase [1]) [%]	suppression of aggregation of chemically denatured CS, light scattering at 320 nm, chaperone to substrate 1:1, 2:1 and 4:1 (citrate synthase [2]) [%]
Hsp110^ΔSBDβ (from UniProt Q9VUC1 1-804) (natural protein)	4	–
B1	–	50
